Measured values taken from patent publication US8058396B2, “Cystatin C as an antagonist of TGF-β and methods related thereto” (National Jewish Health, priority 2003, dated 2011).

Tests used:
TGF-β signaling = assay: p3TP-luciferase reporter gene assay in 3T3-L1 cells; type: cell-based, murine; conditions: expression in 3T3-L1 cells; TGF-β1 0-5 ng/ml; compared to control cells
Method: Analysis of luciferase activity driven by the synthetic p3TP reporter ((26); generously provided by Dr. Joan Massague, Sloan Kettering) was performed as described previously (42). Briefly, control, CystC-, or Δ14CystC-expressing 3T3-L1 or HT1080 cells were cultured onto 24-well plates at a density of 45,000 cells/well and allowed to adhere overnight. The cells were transiently transfected the following morning by overnight exposure to LT1 liposomes (Mirus) containing 300 ng/well p3TP-luciferase and 100 ng/well of pCMV-β-gal. Afterward, the cells were washed twice with PBS and stimulated overnight in serum-free media with increasing concentrations of TGF-β1 as indicated. The following morning, luciferase and β-gal activities contained in detergent-solubilized cell extracts were determined.
In some experiments, the effects of recombinant CystC and D14CystC on p3TP-luciferase activity 3T3-L1 cells was determined. […] All subsequent procedures were performed as described above.
The present inventor's findings that TGF-β signaling was inhibited by CystC (FIGS. 1 and 2) independent of its actions on cathepsin B lead them to hypothesize CystC as a general antagonist of TGF-β signaling. To test this hypothesis, changes in p3TP-driven luciferase activity were monitored in control, CystC-, Δ14CystC-expressing cells before and after their stimulation with TGF-β. Briefly, GFP-, CystC-, or Δ14CystC-expressing 3T3-L1 cells were transiently transfected with p3TP-luciferase and pCMV-β-gal, and subsequently stimulated with increasing concentrations of TGF-β1 (0-5 ng/ml) as indicated in FIG. 3A. Afterward, luciferase and β-gal activities contained in detergent-solubilized cell extracts were measured. […] Data are the mean (±SE) luciferase activities of four independent experiments normalized to untreated GFP-expressing cells.
The transfectants were then stimulated with TGF-β1 (5 ng/ml) in the absence or presence of recombinant (10 mg/ml) GST, GST-CystC, or GST-D14CystC as indicated in FIG. 3B. […]

NRK kidney fibroblasts = assay: Soft agar assay, anchorage-independent growth of NRK cells; type: cell-based, rat; conditions: retroviral-mediated expression in NRK cells; TGF-β1 5 ng/ml; 7 d
Method: The growth of NRK cells in soft agar was performed according to the procedures described in (Moustakas et al., 1999). Briefly, duplicate cultures of control-, CystC-, or Δ14CystC-expressing NRK cells (10,000 cells/plate) were grown in 0.3% agar on a cushion of 0.6% agar in 35-mm plates. NRK cell growth in the absence or presence of TGF-β1 (5 ng/ml) was allowed to proceed for 7 d, whereupon the number of colonies formed was quantified under a light microscope.
This hypothesis was tested by infecting NRK cells with bicistronic retrovirus encoding either CystC or Δ14CystC to determine their effects on NRK anchorage-independent growth stimulated by TGF-β. Briefly, rat NRK kidney fibroblasts were infected with control (i.e., pMSCV-IRES-GFP), CystC, or Δ14CystC retroviral supernatants, and the resulting infected cells were isolated by GFP fluorescence on a MoFlo cell sorter 48 hours later. Control, CystC-, and Δ14CystC-expressing NRK cells were cultured in soft-agar in the absence or presence of TGF-β1 (5 ng/ml) for 7 d, whereupon NRK colony formation was quantified by light microscopy. In addition, control, CystC-, and Δ14CystC-expressing NRK cells were allowed to invade through Matrigel matrices in the absence or presence of TGF-β1 (5 ng/ml) for 48 hours.

| Molecule | TGF-β-stimulated luciferase activity (p3TP) (TGF-β signaling) | morphological transformation (soft agar colony formation) stimulated by TGF-β (NRK kidney fibroblasts) |
| --- | --- | --- |
| Δ14CystC: human CystC with deletion of positions 80 to 93 (conserved cysteine proteinase inhibitor motif), retrovirally expressed and secreted (protein, left off: small tags and cut ends) MAGPLRAPLLLLAILAVALAVSPAAGSSPGKPPRLVGGPMDASVEEEGVRRALDFAVGEYNKASNDMYHSRALQVVRARLGRTTCTKTQPNLDNCPFHDQPHLKRKAFCSFQIYAVPWQGTMTLSKSTCQDA | significantly reduced | completely prevented |
| CystC: full-length human Cystatin C (SEQ ID NO:2), C-terminally Myc- and (His)6-tagged, retrovirally expressed and secreted by the cells (protein, listed as Homo sapiens, C-terminal Myc and His6 tags) MAGPLRAPLLLLAILAVALAVSPAAGSSPGKPPRLVGGPMDASVEEEGVRRALDFAVGEYNKASNDMYHSRALQVVRARKQIVAGVNYFLDVELGRTTCTKTQPNLDNCPFHDQPHLKRKAFCSFQIYAVPWQGTMTLSKSTCQDA | significantly reduced | completely prevented |
